Laboratory results: patent US20240101686A1
Where two headings read alike, the source gives them in different places.

Experiments:
Conditions in all cases: remark: other sources report otherwise
[1] = target: human EGFR on cells (human), P00533
[2] = target: human EGFR on cells (human), P00533; remark: listed apart in the source
[3] = target: human EGFR endogenously expressed on A431 cells (human), P00533
[4] = target: human EGFR on cells (human), P00533; remark: listed apart in the source

B1: 30D8-hIgG1 (antibody, V domains shown)
VH: EVQLVESGGGLVKPGGSLRLSCEASGFTFSDAWMSWVRQAPGKGLEWVGRIKSKTDGGTTDYVVPLNGRFIISRDDSRNTLYLQLNNLKTEDTAVYYCTTVPGSYGYWGQGTLVTVSS
VL: DIVMTQSPLSLPVTPGEPASISCRSSQSLLHNKRNNYLDWFLQKPGQSPQLLIYLASNRASGVPDRFSGGGSGTDFTLKISRVEAEDVGVYYCMQAQQTPITFGQGTRLEIK
Max MFI [1]: 143
Average fluorescence intensity [2]: 528
Max MFI [3]: 712
Max MFI [4]: 88
